From a protein production outcome set (Wang et al. 2014) come the findings set out here.
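Further: failed if final PepcDB status was selected cloned or expressed and not failed if soluble or beyond.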

A short description of this data set: label from the status in PepcDB records.
In the case of “MKKNKLTTLALILPITILTPIVIASCTNKTKVKKSSSLDKIASNLKLEYFNNKANTKASSVQKDEIKKPLNLPNDVVFSVKDVFVSHKDQSVLIVKYTLKKGNEIQEYTYEIKGFKSVYEKDKIVNDLSQANEDFKKIVNNIRLKDTFDFKLAAFPNQNYDQLLPSQIYKNYYQGIEIQQHKYQNELDIKIINFLYPDGDFGSANKNGTLKLSLMLTDKKNNQVYYKLLEVSGFKSNPYGVDENGTIPGIGTERLKPKNQDDYFSKTQLQRYEIDNEGYLQILKRQNNDKNWKELRPDLNATVSDIKHFDEKAKNVGQDSYESAAYKGFTLPVYESDGKISGLALAGKDTPKGPSWVDAIGRNQWQIGGLPRTLPNEKYRQEAMQTFSLGILNNDSHKNNTYNKTAGTTWILDYQKTSDNKYPTKWYFATNLHVADAINENTLSINLMRLMDSAQIKTTFRLSNLDENIYNFGFRSKEHGKNLLNHGLKKIFDGRDFLKTKPAEYLINSQKEKYKDVGNFTDFAVFELDFEKLELVNVWKNFLGENNGLVTKYNNYNPQELAKVITSNYANNKNNQIKFLSKSYLSDYSKIDVPLKYRQEDAKTWFKKYDELFALGWPNSTEDFFFKAYVDDDQLKYRTRDNFSLWTNSDYRFFNNLTQQEGGQPAFPPERTERGNYLSYAIGFRSFIQKPGIVDAFIAVPQIGNNLYTSSDNKKYINMGLEYLPKHFAPAGGASGTSVRNQKNELVAIYHAKYDSSKTGLAAAFRSEGYDYQGLYGNYNLPQYDLIYGGGKDQTEKKSYREAMKDIYQNNNIKTALFPDGFDKIPDEFKFNNN”, the protein production result is “failed”.

In the case of “MHPASFDDHIFRLLIEAVDDYAIYIIDAQGHILTWNNGAERNTGYNADEIIGQSFELFYTPEDLATQLPAKGLLHANQLGHYENQGWRVRKNGKRFWGHITLSALHDSEHNLQGFVQVTRDLTD”, the protein production result is listed as “failed”. Regarding “MKQVVLNLKDGDLTVEEVPIPTIKGSGVLVRNHYSVISAGTESGVVDLADKSLIGKARARPDLAMKVINKAKQDGPISAFQQAMGRLEKREPLGYSSAGTVISVSEDIKDIKPGDRVACAGAGYANHADVVFVPRNLCAKVPENVDFKNACFTTVGSIAMQGVRNADVKIGENIVVIGLGLIGLITLQILKASGCRVFGVDLDESKVNLARELGADLSYSRNSPNLEERIKQFSRGIGADSTIITAATRSNDPVDFAGKITRERGKVVIVGLVGMDIPREEYYNKELEMRISRSYGPGRYDRNYEEYGQDYPAPYVRWTENRNMQAFLDLISMKKISMEPIITHEYEIEQAPEAYNIIKERKPYLGLVLKYDTDKRIEDKVILKSPGPVSAISESFSPVLGVIGAGIFATSILLPNLSKIKGVKLKGLSAASGLSCESVAKKYGFEYCTSDYHKILSDPEINCVSIVTRNSLHASLVIEALKNKKNVLVEKPLALNEEELNAIIEAKKENGGFIMVGFNRRYSELGVKLKDFFKNRSQSMVAYYRVNAESIPKDHWVYDESEGGSRIITECCHFIDFMQFIIGSSPVEVYARKIESQVKTPEDNENVSITIAFEDGSIGTLIYTTHGDSSVSKEHAEFFADGMVGAITDFKQLKLVKDGKCTQINKRLITEKGHKNELENFFKMVKQGPSKYSFEENVLTTVSTLKAAEHVMSGGPVKLI”, the protein production entry was “failed”. The result for “MQRIMVIGGPGSGKSTLGRKLGARLGLPVVHMDPIYWLGDWVERDKAEAMRMAKEVADGSQWVFEGNHFASMAYRAERADLIVFLDMPRVLRMWRILWRSLRYYGRTRPDMGPNCPERFNRAFLKFCWTYDREGRLRALGFVDDWRDRRRVRILTSRRQVAAFLVEIDRQLEHHHHHH” reads “failed”.

Turning to “HRAQRQQMTVLRGDAQSIDIIDLQTFIDSFEEHIWVKNTEGVYTICNQSVEKAWDLPRSDIVGKTDEDLFGKAIADIFLNGDRLAIEAGAPIIVAECLDGENKNNHLWLETLKLPALTPDGELAGVIGMTRNISKHKEVEEQLTLATNVFKHSF”, the protein production entry is reported as “failed”. The result for “MMKLVCPSYIAKRKDSLAFKLFSYMTAIVISILLVQALAEQALVKAMLKVPNSVKMEMLDLAHQANVLIEHGDMDELADWANAQQFYLFVLNEQLQPVTHRLMHPHFEFKLQFKRSIDDQLEDKVNRPIISIPLVQQHNLVIQLPHRLHPANDFILYFSIIKVVIAAVILALFSLLMARNLQQPLDRLREASKKLSNGDFNVSVVQELKSNTREFNELAQDFDHMTKEIHSLAEKQRLLIRDVSHELRTPLARQNLVLHLLRKRVGESEQELVTRLEDEAKELNHLISDILEFSRLENARYDKETKRSDLEVLLAPQVERCKIDLRESQSIVFISRVTEPRAYCEDTLVVRCLNNLVGNAIKYAGEDARIEVTLTNQEINGQAYLVMSVSDDGPGIPENKLSDIFNPFTRLDASRDKKLGGYGLGLAIVKESMRMMGGSVNAENRSQGGLTVSLVFRQ” reads “failed”. Regarding “MKRVALIHGWGGSFAATWEADGWSDALRAAGFDPVGVTIAGHGPEGGSHDPADYADLAGDLAAKLPAGLHGAIGFSLGTKLLLELEARSPGRNGRLVLGGIGDNLFAPEAAGPALVAALRGEATTPPPQVAALLAYAEKSASDPACLAAILERPANPVLTEDRLATAQAPILIFNSRDDAVAQPDTRLCRAMPHASHRLIEGPGHVALTSDARFREAAVEFLSK”, the protein production entry is “failed”. Under “MTNFKDNDGDGTKLHVVMFPWLAFGHMVPYLELSKLIAQKGHKVSFISTPRNIDRLLPWLPENLSSVINFVKLSLPVGDNKLPEDGEATTDVPFELIPYLKIAYDGLKVPVTEFLESSKPDWVLQDFAGFWLPPISRRLGIKTGFFSAFNGATLGILKPPGFEEYRTSPADFMKPPKWVPFETSVAFKLFECRFIFKGFMAETTEGNVPDIHRVGGVIDGCDVIFVRSCYEYEAEWLGLTQELHRKPVIPVGVLPPKPDEKFEDTDTWLSVKKWLDSRKSKSIVYVAFGSEAKPSQTELNEIALGLELSGLPFFWVLKTRRGPWDTEPVELPEGFEERTADRGMVWRGWVEQLRTLSHDSIGLVLTHPGWGTIIEAIRFAKPMAMLVFVYDQGLNARVIEEKKIGYMIPRDETEGFFTKESVANSLRLVMVEEEGKVYRENVKEMKGVFGDMDRQDRYVDSFLEYLVTNR” stands “failed”; under “MTQAFSRVRFIMTQPSHPGNVGSAARAIKTTGFGELVLVAPRFPDMTAQPEAVTLASGALDVLERAAVHDTLEEALAPVTLAFALTARVRDLGPPPCDIREAAGLARRHLDDTEAGVVAIVLGTERAGLTNAQIELCHRICHIPANPQYSSLNVAQALQLAAWELRYALLAGTGQSLLPASSAQQANPGAAPADGAAVQALLAHWEQALVAVGFLDPAHPKKLMPRMKHLLTRSALSRDEVDMLRGVCTAMIAPNRPK”, “failed”. As for “MASYVFIRVSKIRKGYFPVLLAIGFAITFAEGFILFLVNFGAIPTNGPTIQLVPQIIMQNPNPLIRFYGTLILLCFLNTIVLSIFYATIAKLLPKFSG”, the protein production result is given as “failed”. Under “MKRYQGRIIATVLAMTFIMFWNFLFYGVLGNKINWTVDLLFTLVTLISVWWLTLYIDESNQLVYKLKESEKKYKELSSETNRIMDNLQEIVFQTDRIGYITFLNQAWTTLTGYSVEESLGTMYNDYFDHEERISNHLIAQLKNKEPEGRIEVLYHRKDGSKFWGEVHYKLYYKNGQFTGSLGTLTDVTERKKAEMELFKSNQRLAMQSQKLAMAGQLAAGIAHEVRNPLTSVNGFLQLMKAEYPDRKDYFDIIFSEIKRIDSVLGELLVLAKPHQVQFKKIKINSVLQQVATLLETNAVLSHIKIEKAFQHGEEWEINGDENQIKQVFINLIKNGIEAMPDGGKITISSKAEGDCVKISIKDEGGGISQADLAKLGEPFFSTKEEGTGLGLTICLNIIGAHNGEMKIDSKLGEGSTFHILLPVDKGAASEENDIQQGCCSRATIK” stands “failed”; under “MPLELVVIHSYKSSDMKPYLLSAFAAILSTSAMAYDVKSGGKTSVKKDGANAYSLPATNLPMSKRLDFSVGNSFFRNPWVQAPATTDARDGLGPLFNTNGCQNCHIKDGRGHPPEKDDIHAVSMLVRLSIPAMTPKQKKAYIMDGGIPEPTYGGQLQDFALQDQTPEGKIAITYTDVPVEFKDGSKVTLRKPTLKITDLGYGDMHPDTQFSARVAPPMIGLGLLESIPDETLLKWADENDSDSDGISGKVNKVWDIEKGDFSLGRFGWKAGQPTLMQQNAAAFNGDVGLTSHLFPNENCTAKQSLCEELPNGGKPEVSQNILDFVEFYSQHLAVPIRRNVNDPDVQLGQKIFAASGCESCHKTSVKTTKRADRPALSEQLIHPYTDLLLHDMGEGLADHRPEYLANGREWRTPPLWGIGYTEEVNGHTYFLHDGRARNLMEAVLWHGGEAEQAKQNVLSLNQKERDALIAFLNSL”, “failed”; under “MLLILIIIAFVVLFVFFAKYQKKQAQAAALAAGDPSALLNHGLTLINQNQVETGLDFIHQAVDKGFAIAAIALAELYSGRFPQVPADAKASNDWYKKAAELDPQYLAMLTLPNLLSSQAQTPDELIAQVEQLKPNAEAGQAEFQYELAYLYLRQPFLDPDASQAIYWFEKAAAQNKQEANYHLGTLYKDDERITSDYNKARKYFEKAVAAGDELAKDNLAHMLATGQGGPKDLVRAEHLLSEYAAEDDFRQYYLGKRFLYGEDFAVDYDKARHWLEKSSAAGNVFAKLALAHLKLLAQKNDQDYLQARTEFEALAPQWQEEALFGLGKIYEEGLGVSRQPIKALMYYQLAAMSHNTDYLTAYDKLSKRLGTLEIREAQSLCNNFLHQHPIPNEQQAYYYLNQAEIYRKGDHPSREGLQTAETWYRKSADLGNQNAMQALVEIYRHELMDKPVQAFIWSSILLRNFGKYGMNSDQLLYQQQAQSRLTESELLYAQSEIERIEALLTPYLETHQSV”, “failed”. In the case of “KRFEFVGWGSRQLIEFLHSLGKDTSEMISRYDVSDTIAKYISKEGLLDPSNKKKVVCDKRLVLLFGTRTIFRMKVYDLLEKHYKENQD”, the protein production result is “not failed”.

For “MRKCLLSVAMIVKDEEHNIRRALESIKDVVDEIVVVDTGSTDRTPEIVREYTDKLYFHEWKNDFSEARNFSLKFPTCEWVLILDADEEASEEFRQNIRSFLESLPEDVNTVYLPTVSYLDWDFKRTEIASTPRIFRNGTVYYKNIVHNQAVYKPKVVHAPFVIYHYGYIWTRKLKKNKYERTATLIREQLKTVKNPIEKIYYLIQLYKTEKTGGRKHEENRIAWETLQEIMKVGKIPPIGLEFLYIFGMELILNGFLEKGEELIDTAIRVFPENPDPYFAKLAIYERRKDWENLYQWGKKFLDVLNKALSQAEKYEFTITTIKEIGTAHLLMCHACIKLKKWNEAYEHLLKAIENNIDESKFTLTLQIVSEIDESENFQKVLKLVEKIAEHSENLFFDEIVEKIAEFEIEASEELLNKLPVSRKISKFILKRLVEKKDFLFEYLTGGDINSFVEKTGIPGLLFIFDLLKNRETEGRLIRILSKIEGDEKPNGIVQALIGDLYLKLGNFSEAISRYRKALELAPEIGNFIKPVIEDLKTRLDPDIEGVYEELYRYFSGYREFPFNILEFTKEDAEKLYLISDHPLAIYTSAVAVFPKSKEKARALLERIKDVSKLSFYYYRLAKTWEEENPSKAFELHIKAVEENENLGDIALGRYKYDGLYPNQTFPFMKKEDEIVWAGNITEKFSGLGVIHPVRAWKRKENLYYALPHPTDEALKLYKEREKEILKEPPFKVKEEHMIGVLLESDIRDLRIKGEASGLESILKDLEIELKEDSKNLLVVSGVEETLDLSKIAEDAERVLLFFFVPDLRDRNNSVWYYPAFRVLRTTHQMKKTLEDLRFSVVKVKALDKNLRFIEALRRL”, the protein production entry was “failed”. In the case of “MRVLVVGANGKVARYLLSELKNKGHEPVAMVRNEEQGPELRERGASDIVVANLEEDFSHAFASIDAVVFAAGSGPHTGADKTILIDLWGAIKTIQEAEKRGIKRFIMVSSVGTVDPDQGPMNMRHYLVAKRLADDELKRSSLDYTIVRPGPLSNEESTGKVTVSPHFSEITRSITRHDVAKVIAELVDQQHTIGKTFEVLNGDTPIAKVVEQL”, the protein production result is recorded as “not failed”.
